# Assay results from publication PMC10147665.
# B1: endogenous PDPK1 [not stated (endogenous; cell line of this co-IP not named)] / endogenous PID1 [not stated (endogenous; cell line of this co-IP not named)] (parent)
# chain 1: MFSLPLSLPLCEDTAFLPSKCCSSHKTIKQARTLIMIFLASGTHFQTMLKSKLNVLTLKKEPLPAVIFHEPEAIELCTTTPLMKTRTHSGCKVTYLGKVSTTGMQFLSGCTEKPVIELWKKHTLAREDVFPANALLEIRPFQVWLHHLDHKGEATVHMDTFQVARIAYCTADHNVSPNIFAWVYREINDDLSYQMDCHAVECESKLEAKKLAHAMMEAFRKTFHSMKSDGRIHSNSSSEEVSQELESDDG
# chain 2: MARTTSQLYDAVPIQSSVVLCSCPSPSMVRTQTESSTPPGIPGGSRQGPAMDGTAAEPRPGAGSLQHAQPPPQPRKKRPEDFKFGKILGEGSFSTVVLARELATSREYAIKILEKRHIIKENKVPYVTRERDVMSRLDHPFFVKLYFTFQDDEKLYFGLSYAKNGELLKYIRKIGSFDETCTRFYTAEIVSALEYLHGKGIIHRDLKPENILLNEDMHIQITDFGTAKVLSPESKQARANSFVGTAQYVSPELLTEKSACKSSDLWALGCIIYQLVAGLPPFRAGNEYLIFQKIIKLEYDFPEKFFPKARDLVEKLLVLDATKRLGCEEMEGYGPLKAHPFFESVTWENLHQQTPPKLTAYLPAMSEDDEDCYGNYDNLLSQFGCMQVSSSSSSHSLSASDTGLPQRSGSNIEQYIHDLDSNSFELDLQFSEDEKRLLLEKQAGGNPWHQFVENNLILKMGPVDKRKGLFARRRQLLLTEGPHLYYVDPVNKVLKGEIPWSQELRPEAKNFKTFFVHTPNRTYYLMDPSGNAHKWCRKIQEVWRQRYQSHPDAAVQ
# Variants of: B1
# Assay: co-immunoprecipitation (IP: HA, IB: PID1), band densitometry
# Conditions: with endogenous PID1 [not stated (endogenous; cell line of this co-IP not named)]; IGF-1 + (insulin -); read off a plot
row,response,Variant
1,0.06,chain 2 Y9F Y373F Y376F

# Same assay, conditions: with endogenous PID1 [not stated (endogenous; cell line of this co-IP not named)]; insulin + (IGF-1 -); read off a plot
row,response,Variant
1,0.06,chain 2 Y9F Y373F Y376F

# Same assay, conditions: with endogenous PID1 [not stated (endogenous; cell line of this co-IP not named)]; no growth factor (IGF-1 -, insulin -); read off a plot
row,response,Variant
1,0.07,chain 2 Y9F Y373F Y376F
